No end group written: not given here. *: point of attachment. 6FAM = O=C1OC2(c3ccc(O)cc3Oc3cc(O)ccc32)c2cc(C(=O)*)ccc21
Biological target: 46-kDa soluble recombinant GST-fused Bcl-2 protein (Santa Cruz Biotechnology) (human) (UniProt P10415)
Experiment: fluorescence polarization saturation binding

Kd: 6.9 nM
Binder: 6FAM-NLWAAQRYGRELRRMSDEFVDSFKK
